# Reference: PMC3491057, “Proliferating Cell Nuclear Antigen (PCNA) Interactions in Solution Studied by NMR” (PLoS ONE, 2012)
# “Also recorded” adds a separate entry of the source.
# B1: Gadd45α: Growth arrest and DNA damage 45 alpha protein (protein, UniProt P24522 1-165, looked up)
# Growth arrest and DNA …: MTLEEFSAGEQKTERMDKVGDALEEVLSKALSQRTITVGVYEAAKLLNVDPDNVVLCLLAADEDDDRDVALQIHFTLIQAFCCENDINILRVSNPGRLAELLLLETDAGPAASEGAEQPPDLHCVLVTNPHSSQWKDPALSQLICFCRESRYMDQWVPVINLPER
# B2: MCL-1: Myeloid cell leukemia 1 protein, literature interaction with PCNA (protein)
# chain: NNTSTDGSLPSTPPPAEEEEDELYRQSLEIISRYLREQATGAKDTKPMGRSGATSRKALETLRRVGDGVQRNHETAFQGMLRKLDIKNEDDVKSLSRVMIHVFSDGVTNWGRIVTLISFGAFVAKHLKTINQESCIEPLAESITDVLVRTKRDWLVKQRGWDGFVEFFHVEDLEGGIRNVLLAFAGVAGVGA
# modifications: left off: His tag, N-terminal, kept
# B3: ΔN151−ΔC7: MCL-1 residues 152–343 plus an N-terminal histidine-tag (protein)
# chain: B2 chain
# modifications: left off: His tag, N-terminal, kept
# Experiments:
# PCNA [1] = tested on: PCNA; design: method as in PMID 20460379; settings: cited from earlier work
# PCNA [2] = settings: co-immunoprecipitation, lysates from co-transfected human embryonic cells and native HeLa cells; cited from earlier work
# Excerpt: MCL-1 is a member of the pro-survival B-cell lymphoma-leukemia-2 (Bcl-2) family that preserves mitochondrial integrity during apoptosis. It consists of an intrinsically disordered, 170 residue long N-terminal region and a C-terminal globular domain with three Bcl-2 homology (BH) regions. […] MCL-1 has a sequence that meets this minimal PIP-box motif (^221 […] ^228) at the end of the BH3 region in its globular C-terminal domain.
# [3] = tested on: PCNA C-terminal fragment 137–261; settings: yeast two-hybrid; cited from earlier work
# Excerpt: MCL-1 has a sequence that meets this minimal PIP-box motif (^221 […] ^228) at the end of the BH3 region in its globular C-terminal domain.
# human PCNA = target: T1, human PCNA (Homo sapiens, UniProt P12004); test: NMR (TROSY) examination of the interaction of PCNA with MCL-1 construct; type: binding; settings: 35°C; for binding to PCNA (chemical shift or intensity changes): 50 µM 2H-15N PCNA, 220 µM MCL-1 construct (4.4 equivalents), 10 mM Tris pH 7.4, 250 mM NaCl, 1 mM EDTA, 0.5 mM DTT, 800 MHz
# T1 construct: His6 tag with PreScission protease cleavage site (N, cleaved yes); made in house; host or cells: E. coli
# Description: The human MCL-1 ΔN151−ΔC7 construct cloned in vector pET32a was expressed and purified as described. Briefly, the protein was expressed in E. coli BL21(DE3) cells with a histidine-tag and a Tev protease site at the N-terminus, and was purified by two chromatography steps: immobilized nickel ion affinity and size exclusion.
# Unless indicated otherwise, the NMR spectra were recorded on a Bruker AV600 spectrometer equipped with a cryogenically-cooled triple resonance z-gradient probe at 35°C on PCNA samples with or without ligands in PBS pH 7.0. The spectra in Figures S2, S4, S7 and S8 were recorded on a Bruker AV800 spectrometer with a cryogenically-cooled triple resonance z-gradient probe on samples and buffers described in the corresponding legends. TROSY-based 3D HNCO, HN(CA)CO, HNCACB, HN(CO)CACB, and HNCA [21] were recorded for resonance assignment. Spectra were processed with TopSpin (Bruker) or with NMRPipe and analyzed using NMRView. Peak intensities were evaluated by the peak heights measured using CCPNMR [24].
# We have monitored the binding of MCL-1 to PCNA by NMR using an MCL-1 construct that lacks most of the disordered N-terminal region but retains the C-terminal domain correctly folded. […] As no significant CSPs were measured, it is not possible to confirm the interaction, but a lower limit for the dissociation constant of the putative complex can be estimated. Assuming an equimolar complex, and that we should be able to detect significant changes when at least 20% of PCNA is bound to MCL-1 [42], a lower limit of the dissociation constant can be calculated. […]
# Supplementary file pone.0048390.s007.tif: Figure S7 NMR examination of the interaction of PCNA with MCL-1. ^1H-^15N TROSY spectra of 50 µM uniformly labeled ^2H-^15N PCNA alone (black) or in the presence (red) of 220 µM of the ΔN151−ΔC7 fragment of human MCL-1 (1∶4.4 ratio on a PCNA monomer basis). The spectra were recorded in 10 mM Tris pH 7.4, 250 mM NaCl, 1 mM EDTA, 0.5 mM DTT at 800 MHz and 35°C. […]
# T1 sequence (P12004 whole entry): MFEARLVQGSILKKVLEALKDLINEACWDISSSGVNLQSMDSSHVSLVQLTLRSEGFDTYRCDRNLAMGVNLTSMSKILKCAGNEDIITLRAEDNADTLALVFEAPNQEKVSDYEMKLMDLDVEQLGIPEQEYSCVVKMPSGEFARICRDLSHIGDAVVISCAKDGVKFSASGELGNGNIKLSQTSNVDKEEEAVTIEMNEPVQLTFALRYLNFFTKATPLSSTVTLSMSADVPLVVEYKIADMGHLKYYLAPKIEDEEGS
molecule,measurement,setting,value
B1,direct interaction with PCNA in solution,PCNA [1],extremely weak
B2,interaction with PCNA,PCNA [2],interact with PCNA; also recorded: detected by co-immunoprecipitation
same,interaction with PCNA fragment 137–261,[3],sufficient for the interaction with MCL-1
B3,binding to PCNA (chemical shift or intensity changes),human PCNA,did not observe any indication of binding
same,binding to PCNA (chemical shift or intensity changes),human PCNA; listed as Bcl-2 domain of MCL-1,did not detect binding
same,Kd,"human PCNA; assuming equimolar complex and detection at ≥20% PCNA bound, 50 µM PCNA, 220 µM MCL-1 construct, read-out: dissociation constant (lower limit)",> 840 µM
